From PMC5878720

Molecular target: T1, IL-11Rα (human (endogenous in RA ST fibroblasts and HUVECs)) (UniProt Q14626)
T1 sequence: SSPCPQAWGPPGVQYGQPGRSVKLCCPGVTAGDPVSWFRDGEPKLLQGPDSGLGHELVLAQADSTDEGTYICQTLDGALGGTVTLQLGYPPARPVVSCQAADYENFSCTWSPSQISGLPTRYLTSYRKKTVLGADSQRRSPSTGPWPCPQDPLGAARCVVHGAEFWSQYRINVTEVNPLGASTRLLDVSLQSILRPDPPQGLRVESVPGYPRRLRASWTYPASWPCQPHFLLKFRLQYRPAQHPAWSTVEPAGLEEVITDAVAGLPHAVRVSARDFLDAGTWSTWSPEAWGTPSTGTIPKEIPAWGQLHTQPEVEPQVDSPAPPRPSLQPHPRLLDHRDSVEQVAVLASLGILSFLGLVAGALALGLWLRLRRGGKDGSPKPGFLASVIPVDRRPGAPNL

B1: IL-11 (ligand)
chain: PGPPPGPPRVSPDPRAELDSTVLLTRSLLADTRQLAAQLRDKFPADGDHNLDSLPTLAMSAGALGALQLPGVLTRLRADLLSYLRHVQWLRRAGGSSLKTLEPELGTLQARLDRLLRRLQLLMSRLALPQPPPDPPAPPLAPPSSAWGGIRAAHAILGGLHLTLDWAVRGLLLLKTRL
Question: For B1, which HUVEC transwell migration, 24h, IL-11 1-100 ng/ml, fold over control is on record?
Answer: 3 to 15 fold
